Results as given in article PMC11187062 (2024).

T1: human UHRF1 PHD finger, residues 299–366 (human, UniProt Q96T88 299-366)
T1 chain: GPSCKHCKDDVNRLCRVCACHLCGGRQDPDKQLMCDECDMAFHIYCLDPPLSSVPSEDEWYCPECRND


Biological target: T1, human UHRF1 PHD finger, residues 299–366
Test: ITC

Binder	Kd [nM]
SRRGVRTALSVQREKMARLRYMLLGGVRTHERRPTNKE (domain or fragment) [hDPPA3_(81-118) L88A]	1280
SRRGARTLLSVQREKMARLRYMLLGGVRTHERRPTNKE (domain or fragment) [hDPPA3_(81-118) V85A]	1610
